B1: H10/TPP-76868 fusion protein (other)
heavy 1: EVQLVESGGGLVQPGGSLRLSCAASGFSFGDFDMRWFRQAPGKGLEWVGLIKSRAYLEATEFAASVEGRFTISRDDAKNSAYLQMNSLRAEDTAVYYCTRDSYSSGLLDYWGQGTLVTVSSASTKGPSVFPLAPSSKSTSGGTAALGCLVKDYFPEPVTVSWNSGALTSGVHTFPAVLQSSGLYSLSSVVTVPSSSLGTQTYICNVNHKPSNTKVDKKVEPKSCDKTHTCPPCPAPEAAGAPSVFLFPPKPKDTLMISRTPEVTCVVVDVSHEDPEVKFNWYVDGVEVHNAKTKPREEQYNSTYRVVSVLTVLHQDWLNGKEYKCKVSNKALPAPIEKTISKAKGQPREPQVYTLPPCREEMTKNQVSLSCAVKGFYPSDIAVEWESNGQPENNYKTTPPVLDSDGSFFLVSKLTVDKSRWQQGNVFSCSVMHEALHNHYTQKSLSLSPGK
heavy 2: EVQLVESGGGLVQPGGSLRLSCAASGFSFGDFDMRWFRQAPGKGLEWVGLIKSRAYLEATEFAASVEGRFTISRDDAKNSAYLQMNSLRAEDTAVYYCTRDSYSSGLLDYWGQGTLVTVSSASTKGPSVFPLAPSSKSTSGGTAALGCLVKDYFPEPVTVSWNSGALTSGVHTFPAVLQSSGLYSLSSVVTVPSSSLGTQTYICNVNHKPSNTKVDKKVEPKSCDKTHTCPPCPAPEAAGAPSVFLFPPKPKDTLMISRTPEVTCVVVDVSHEDPEVKFNWYVDGVEVHNAKTKPREEQYNSTYRVVSVLTVLHQDWLNGKEYKCKVSNKALPAPIEKTISKAKGQPREPQVCTLPPSREEMTKNQVSLWCLVKGFYPSDIAVEWESNGQPENNYKTTPPVLDSDGSFFLYSKLTVDKSRWQQGNVFSCSVMHEALHNHYTQKSLSLSPGSGGGGSGGGGSGGGGRNLPVATPDPGMFPCLHHSQNLLRAVSNMLQKARQTLEFYPCTSEEIDHEDITKDKTSTVEACLPLELTKNESCLNSRETSFITNGSCLASRKTSFMMALCLSSIYEDLKMYQVEFKTMNAKLLMDPKRQIFLDQNMLAVIDELMQALNFNSETVPQKSSLEEPDFAKTKIKLCILLHAFRIRAVTIDRVMSYLNAS
light: DIQMTQSPSSLSASVGDRVTITCRASQGISNYLAWFQQKPGKAPKRLIYAAQIPGSGVPSRFSGSGSGTDFTLTISSLQPEDFATYYCLQHYSYPLTFGGGTKVEIKRTVAAPSVFIFPPSDEQLKSGTASVVCLLNNFYPREAKVQWKVDNALQSGNSQESVTEQDSKDSTYSLSSTLTLSKADYEKHKVYACEVTHQGLSSPVTKSFNRGEC
chain: IWELKKDVYVVELDWYPDAPGEMVVLTCDTPEEDGITWTLDQSSEVLGSGKTLTIQVKEFGDAGQYTCHKGGEVLSHSLLLLHKKEDGIWSTLILKDQKEPKNKTFLRCEAKNYSGRFTCWWLTTISTDLTFSVKSSRGSSDPQGVTCGAATLSAERVRGDNKEYEYSVECQEDSACPAAEESLPIEVMVDAVHKLKYENYTSSFFIRDIIKPDPPKNLQLKPLKNSRQVEVSWEYPDTWSTPHSYFSLTFCVQVQGGGGDRVFTDKTSATVICRKNASISVRAQDRYYSSSWSEWASVPCS
B2: H10/TPP-77658 fusion protein (other)
heavy 1: EVQLVESGGGLVQPGGSLRLSCAASGFSFGDFDMRWFRQAPGKGLEWVGTIKSRAYLEATEFAASVEGRFTISRDDAKNSAYLQMNSLRAEDTAVYYCTRDAYSSGLLDYWGQGTLVTVSSASTKGPSVFPLAPSSKSTSGGTAALGCLVKDYFPEPVTVSWNSGALTSGVHTFPAVLQSSGLYSLSSVVTVPSSSLGTQTYICNVNHKPSNTKVDKKVEPKSCDKTHTCPPCPAPEAAGAPSVFLFPPKPKDTLMISRTPEVTCVVVDVSHEDPEVKFNWYVDGVEVHNAKTKPREEQYNSTYRVVSVLTVLHQDWLNGKEYKCKVSNKALPAPIEKTISKAKGQPREPQVYTLPPCREEMTKNQVSLSCAVKGFYPSDIAVEWESNGQPENNYKTTPPVLDSDGSFFLVSKLTVDKSRWQQGNVFSCSVMHEALHNHYTQKSLSLSPGK
heavy 2: EVQLVESGGGLVQPGGSLRLSCAASGFSFGDFDMRWFRQAPGKGLEWVGTIKSRAYLEATEFAASVEGRFTISRDDAKNSAYLQMNSLRAEDTAVYYCTRDAYSSGLLDYWGQGTLVTVSSASTKGPSVFPLAPSSKSTSGGTAALGCLVKDYFPEPVTVSWNSGALTSGVHTFPAVLQSSGLYSLSSVVTVPSSSLGTQTYICNVNHKPSNTKVDKKVEPKSCDKTHTCPPCPAPEAAGAPSVFLFPPKPKDTLMISRTPEVTCVVVDVSHEDPEVKFNWYVDGVEVHNAKTKPREEQYNSTYRVVSVLTVLHQDWLNGKEYKCKVSNKALPAPIEKTISKAKGQPREPQVCTLPPSREEMTKNQVSLWCLVKGFYPSDIAVEWESNGQPENNYKTTPPVLDSDGSFFLYSKLTVDKSRWQQGNVFSCSVMHEALHNHYTQKSLSLSPGSGGGGSGGGGSGGGGRNLPVATPDPGMFPCLHHSQNLLRAVSNMLQKARQTLEFYPCTSEEIDHEDITKDKTSTVEACLPLELTKNESCLNSRETSFITNGSCLASRKTSFMMALCLSSIYEDLKMYQVEFKTMNAKLLMDPKRQIFLDQNMLAVIDELMQALNFNSETVPQKSSLEEPDFAKTKIKLCILLHAFRIRAVTIDRVMSYLNAS
light: DIQMTQSPSSLSASVGDRVTITCRASQGISNYLAWFQQKPGKAPKRLIYAAQIPGSGVPSRFSGSGSGTDFTLTISSLQPEDFATYYCLQHYSYPLTFGGGTKVEIKRTVAAPSVFIFPPSDEQLKSGTASVVCLLNNFYPREAKVQWKVDNALQSGNSQESVTEQDSKDSTYSLSSTLTLSKADYEKHKVYACEVTHQGLSSPVTKSFNRGEC
chain: IWELKKDVYVVELDWYPDAPGEMVVLTCDTPEEDGITWTLDQSSEVLGSGKTLTIQVKEFGDAGQYTCHKGGEVLSHSLLLLHKKEDGIWSTLILKDQKEPKNKTFLRCEAKNYSGRFTCWWLTTISTDLTFSVKSSRGSSDPQGVTCGAATLSAERVRGDNKEYEYSVECQEDSACPAAEESLPIEVMVDAVHKLKYENYTSSFFIRDIIKPDPPKNLQLKPLKNSRQVEVSWEYPDTWSTPHSYFSLTFCVQVQGGGGDRVFTDKTSATVICRKNASISVRAQDRYYSSSWSEWASVPCS
B3: TPP-76868 (antibody, V domains shown)
VH: EVQLVESGGGLVQPGGSLRLSCAASGFSFGDFDMRWFRQAPGKGLEWVGLIKSRAYLEATEFAASVEGRFTISRDDAKNSAYLQMNSLRAEDTAVYYCTRDSYSSGLLDYWGQGTLVTVSS
VL: DIQMTQSPSSLSASVGDRVTITCRASQGISNYLAWFQQKPGKAPKRLIYAAQIPGSGVPSRFSGSGSGTDFTLTISSLQPEDFATYYCLQHYSYPLTFGGGTKVEIK
B4: TPP-77658 (antibody, V domains shown)
VH: EVQLVESGGGLVQPGGSLRLSCAASGFSFGDFDMRWFRQAPGKGLEWVGTIKSRAYLEATEFAASVEGRFTISRDDAKNSAYLQMNSLRAEDTAVYYCTRDAYSSGLLDYWGQGTLVTVSS
VL: DIQMTQSPSSLSASVGDRVTITCRASQGISNYLAWFQQKPGKAPKRLIYAAQIPGSGVPSRFSGSGSGTDFTLTISSLQPEDFATYYCLQHYSYPLTFGGGTKVEIK
B5: TPP-68807 (antibody, V domains shown)
VH: EVQLVESGGGLVQPGGSLRLSCAASGFSFGDFDMRWFRQAPGKGLEWVGLIKSKAYRYATEFAASVEGRFTISRDDAKNSAYLQMNSLRAEDTAVYYCTRDSYSSGLLDYWGQGTLVTVSS
VL: DIQMTQSPSSLSASVGDRVTITCRASQGISNYLAWFQQKPGKAPKRLIYAASIPGSGVPSRFSGSGSGTDFTLTISSLQPEDFATYYCLQHKSYPLTFGGGTKVEIK

What was measured:
[1] = molecular target: human IL-12 receptor on cells (human, UniProt P42701 24-662; Q99665 24-862); assay: cell-based or functional assay
Chain of human IL-12 receptor on cells (Q99665 24-862, chain 2 of 2, other chains not shown): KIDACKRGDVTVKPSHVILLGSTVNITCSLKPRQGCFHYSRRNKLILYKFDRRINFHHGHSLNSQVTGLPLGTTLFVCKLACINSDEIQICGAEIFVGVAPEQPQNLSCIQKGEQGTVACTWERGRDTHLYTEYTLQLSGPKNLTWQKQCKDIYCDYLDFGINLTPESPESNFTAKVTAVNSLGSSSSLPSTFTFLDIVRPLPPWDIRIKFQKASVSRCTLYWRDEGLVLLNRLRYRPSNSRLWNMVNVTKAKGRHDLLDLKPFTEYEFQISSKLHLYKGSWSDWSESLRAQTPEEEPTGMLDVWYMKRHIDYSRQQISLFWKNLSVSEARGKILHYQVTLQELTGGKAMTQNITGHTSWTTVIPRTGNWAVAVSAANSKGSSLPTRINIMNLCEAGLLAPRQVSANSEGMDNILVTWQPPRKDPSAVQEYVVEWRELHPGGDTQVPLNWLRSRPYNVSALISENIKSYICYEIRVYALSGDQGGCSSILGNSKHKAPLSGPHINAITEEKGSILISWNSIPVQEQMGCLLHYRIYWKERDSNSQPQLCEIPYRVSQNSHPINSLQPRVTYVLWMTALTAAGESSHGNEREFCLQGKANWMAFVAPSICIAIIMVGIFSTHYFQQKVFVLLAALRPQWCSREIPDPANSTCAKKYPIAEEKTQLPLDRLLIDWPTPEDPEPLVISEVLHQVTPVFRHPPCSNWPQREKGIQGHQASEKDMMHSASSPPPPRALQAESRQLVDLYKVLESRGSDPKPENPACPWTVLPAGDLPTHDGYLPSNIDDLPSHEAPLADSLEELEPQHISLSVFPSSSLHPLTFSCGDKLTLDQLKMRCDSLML

[2] = molecular target: T1, human PD1 (human, UniProt Q15116 25-167, limits assumed); assay: binding kinetics to hPD1, method not stated
T1 construct: the construct is not described; also called hPD1; programmed cell death protein 1
T1 sequence (Q15116 25-167 limits assumed): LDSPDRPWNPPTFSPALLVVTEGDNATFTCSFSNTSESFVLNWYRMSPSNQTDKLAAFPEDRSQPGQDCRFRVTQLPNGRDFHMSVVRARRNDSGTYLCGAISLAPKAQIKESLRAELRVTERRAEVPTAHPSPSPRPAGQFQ

Row | Binder | CD4 T cell activation assay PSTAT4 EC50 (ug/ml); Donor #1 [1] [µg/mL] | CD4 T cell activation assay PSTAT4 EC50 (ug/ml); Donor #2 [1] [µg/mL] | Kd [2] [nM] | koff [2] [s⁻¹] | kon [2] [M⁻¹ s⁻¹] | t1/2 [2]
1 | B1 | 0.139 | 0.998 | – | – | – | –
2 | B2 | 0.235 | 1.54 | – | – | – | –
3 | B3 | – | – | 3 | 0.000391 | 135000 | 1770 s (not printed; inferred from ln2/kd)
4 | B4 | – | – | 7 | 0.000765 | 109000 | 906 s (not printed; inferred from ln2/kd)
5 | B5 | – | – | 3 | 0.000251 | 78500 | 2760 s (not printed; inferred from ln2/kd)

Reference: patent US20240010696A1 (Pfizer, published 2024)
